What was measured:
Format in all cases: physicochemical
[1] = Alkaline phosphatase activity after drying and acetone exposure; conditions: dried with 50% trehalose versus dried without trehalose; with bovine serum albumin; FIG. 6B
Experimental: (§1) A 0.1 mg/ml horseradish peroxidase solution or a 1 mg/ml alkaline phosphatase/4 mg/ml bovine serum albumin solution was dried in an FTS Systems freeze drier with or without 50% trehalose. The drier was used as a vacuum drier and the mixtures dried without freezing. Four times the volume of solvent was added and the solution was allowed to evaporate to dryness. The contents were redissolved in 5 milliliters of water, and enzyme activity was assessed, in serial dilution, by commercial ‘kit’ reagents.

[2] = Horseradish peroxidase activity after drying and acetone exposure; conditions: dried with 50% trehalose versus dried without trehalose; FIG. 6A
Experimental: as §1

[3] = Storage of phycoerythrin dried in trehalose at 100° C.; conditions: stored at 100° C. for one month
Experimental: A 400 μg/ml phycoerythrin solution was freeze-dried in the FTS drier with or without 20% trehalose.

[4] = Exposure of dried phycoerythrin powder to organic solvents, fluorescence; conditions: freeze-dried powder
Experimental: A 400 μg/ml phycoerythrin solution was freeze-dried in a Labconco freeze-drier with or without 20% trehalose. The dried protein powder was exposed to a number of organic solvents for 72 hrs.

For alkaline phosphatase, which “resistance of enzyme activity to acetone” value [1] is on record?
The value was “more resistant to acetone”.

For horseradish peroxidase, which “resistance of enzyme activity to acetone” value [2] is on record?
Its value is “more resistant to acetone”.

With phycoerythrin as the substance, how does the “loss of functional activity on storage” value [3] read?
Its value is “no detectable loss of functional activity”.

What about the “fluorescence after solvent exposure” value ([4]; acetone, 72 hrs) of the same substance?
The value was “remained fluorescent”.

And the “fluorescence after solvent exposure” value ([4]; acetonitrile, 72 hrs)?
The value was “remained fluorescent”.

What about the “fluorescence after solvent exposure” value ([4]; chloroform, 72 hrs) of the same substance?
Its value is “remained fluorescent”.

What about the “fluorescence after solvent exposure” value ([4]; dimethylsulfoxide (powder solubilized)) of the same substance?
The value was “remained fluorescent”.

And the “fluorescence after solvent exposure” value ([4]; methanol, 72 hrs)?
Its value is “remained fluorescent”.

And the time remained fluorescent ([4]; pyridine)?
The time remained fluorescent was 24 to 48 h.

And the “fluorescence after solvent exposure” value ([4]; pyridine, by 72 hrs)?
Its value is “lost fluorescence”.
